PMC12327374 (Biomedicine & pharmacotherapy = Biomedecine & …, 2024)

Target: SUSD5 protein, expressed on HEK293 cells (ZsGreen1-SUSD5 vector) (Homo sapiens, UniProt O60279)
Experiment: flow cytometry on cells

Sequence of SUSD5 protein, expressed on HEK293 cells (ZsGreen1-SUSD5 vector) (O60279 36-629): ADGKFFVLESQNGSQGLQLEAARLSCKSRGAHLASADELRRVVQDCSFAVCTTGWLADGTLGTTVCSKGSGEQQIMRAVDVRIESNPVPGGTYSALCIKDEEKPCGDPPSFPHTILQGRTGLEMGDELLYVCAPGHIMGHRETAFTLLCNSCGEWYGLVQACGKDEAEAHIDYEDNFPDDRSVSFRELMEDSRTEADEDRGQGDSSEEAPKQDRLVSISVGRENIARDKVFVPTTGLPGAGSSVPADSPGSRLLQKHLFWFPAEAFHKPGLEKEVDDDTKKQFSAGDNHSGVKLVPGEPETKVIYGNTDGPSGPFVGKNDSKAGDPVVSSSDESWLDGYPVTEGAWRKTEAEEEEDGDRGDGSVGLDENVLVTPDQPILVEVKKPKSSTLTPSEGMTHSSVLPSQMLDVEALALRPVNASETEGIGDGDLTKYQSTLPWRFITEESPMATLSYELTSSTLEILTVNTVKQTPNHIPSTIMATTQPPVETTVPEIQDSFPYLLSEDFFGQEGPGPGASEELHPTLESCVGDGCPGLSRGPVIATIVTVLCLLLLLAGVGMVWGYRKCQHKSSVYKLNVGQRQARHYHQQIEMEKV

B1: h1-3F1, stabilized humanized anti-CD169 mAb of clone #3F1 (variant 6 of h0-3F1) (antibody, V domains shown)
VH: QVQLVQSGAEVKKPGASVKVSCKASGYSFTTYYMHWVRQAPGQRLEWMGWISAYSGATKYSQKFQGRVTITRDTSASTAYMELSSLRSEDTAVYYCARKGGWIPFDYWGQGTTVTVSS
VL: not shown
B1: binds.
